Laboratory results reported in US20210292396A1.
Values joined by “and” are separate entries in the source; they are usually repeats but may differ in a detail not shown here. Identical values can stand only once.

What was measured:
Test in all cases: cell-based or functional assay
[1] = biological target: Env of HIV isolate 89.6.DG (clade B) (HIV)
[2] = biological target: Env of HIV isolate BB201.B42 (clade A) (HIV)
[3] = biological target: Env of HIV isolate BR07.DG (clade B) (HIV)
[4] = biological target: Env of HIV isolate CNE59 (clade AE) (HIV)
[5] = biological target: Env of HIV isolate DU172.17 (clade C) (HIV)
[6] = biological target: Env of HIV isolate X1193.c1 (clade G) (HIV)
[7] = biological target: Env of HIV isolate ZM106.9 (clade C) (HIV)
Env of SIVmac251.30.SG3 = biological target: Env of SIVmac251.30.SG3
[8] = biological target: HIV Env of isolate 00836-2.5 (HIV)
[9] = biological target: HIV Env of isolate 0260.v5.c36 (HIV)
[10] = biological target: HIV Env of isolate 1006_11_C3_1601 (HIV)
[11] = biological target: HIV Env of isolate 1012_11_TC21_3257 (HIV)
[12] = biological target: HIV Env of isolate 1056_10_TA11_1826 (HIV)
[13] = biological target: HIV Env of isolate 191084_B7-19 (HIV)
[14] = biological target: HIV Env of isolate 235-47 (HIV)
[15] = biological target: HIV Env of isolate 246F_C1G (HIV)
[16] = biological target: HIV Env of isolate 249M_B10 (HIV)
[17] = biological target: HIV Env of isolate 263-8 (HIV)
[18] = biological target: HIV Env of isolate 6041.v3.c23 (HIV)
[19] = biological target: HIV Env of isolate 62357_14_D3_4589 (HIV)
[20] = biological target: HIV Env of isolate 6240_08_TA5_4622 (HIV)
[21] = biological target: HIV Env of isolate 6480.v4.c25 (HIV)
[22] = biological target: HIV Env of isolate 6540.v4.c1 (HIV)
[23] = biological target: HIV Env of isolate AC10.0.29 (HIV)
[24] = biological target: HIV Env of isolate BJOX009000.02.4 (HIV)
[25] = biological target: HIV Env of isolate BJOX028000.10.3 (HIV)
[26] = biological target: HIV Env of isolate CAAN5342.A2 (HIV)
[27] = biological target: HIV Env of isolate CAP210.2.00.E8 (HIV)
[28] = biological target: HIV Env of isolate CAP45.2.00.G3 (HIV)
[29] = biological target: HIV Env of isolate CNE52 (HIV)
[30] = biological target: HIV Env of isolate Ce1172_H1 (HIV)
[31] = biological target: HIV Env of isolate Du156.12 (HIV)
[32] = biological target: HIV Env of isolate Du172.17 (HIV)
[33] = biological target: HIV Env of isolate Du422.1 (HIV)
[34] = biological target: HIV Env of isolate HIV-0013095-2.11 (HIV)
[35] = biological target: HIV Env of isolate HIV-001428-2.42 (HIV)
[36] = biological target: HIV Env of isolate HIV-16055-2.3 (HIV)
[37] = biological target: HIV Env of isolate HIV-16845-2.22 (HIV)
[38] = biological target: HIV Env of isolate P1981_C5_3 (HIV)
[39] = biological target: HIV Env of isolate Q23.17 (HIV)
[40] = biological target: HIV Env of isolate QH0692.42 (HIV)
[41] = biological target: HIV Env of isolate RHPA4259.7 (HIV)
[42] = biological target: HIV Env of isolate T211-9 (HIV)
[43] = biological target: HIV Env of isolate T250-4 (HIV)
[44] = biological target: HIV Env of isolate T251-18 (HIV)
[45] = biological target: HIV Env of isolate T255-34 (HIV)
[46] = biological target: HIV Env of isolate TRO.11 (HIV)
[47] = biological target: HIV Env of isolate WEAU_d15_410_5017 (HIV)
[48] = biological target: HIV Env of isolate WITO4160.33 (HIV)
[49] = biological target: HIV Env of isolate X2088_c9 (HIV)
[50] = biological target: HIV Env of isolate ZM135M.PL10a (HIV)
[51] = biological target: HIV Env of isolate ZM53M.PB12 (HIV)

B1: ePGT121.18 (ePGT121.18.H1 VH and ePGT121.17.L1 VL) (antibody, V domains shown)
VH: QMQLQESGPGLVKPGETLSLTCSVSGASISSSYWSWLRETPGKGLEWIGYTHHSGDTNYAPSLKSRVHLGLHPSKNQVSLSLTSVTAADTAVYYCARTLHGRRIYGVVAFNEYYTYFYWPTWGKGTQVTVSS
VL: SDISVAPGETVRITCGGESIGSRAVQWYQHRPGQAPRLIIYNNQDRPPGIPERFSGSPDIDFGTTATLTISNVEAGDEATYYCHIWDSRRPTNWELGPGTTLTVL
B1 was tested, and the IC50, pseudovirus neutralization [1] was 1 ng/mL, the IC50, pseudovirus neutralization [2] was 2 ng/mL and the IC50, pseudovirus neutralization [3] was 5 ng/mL. The IC50, pseudovirus neutralization [4] was greater than 50000 ng/mL, the IC50, pseudovirus neutralization [5] was 3 ng/mL and the IC50, pseudovirus neutralization [6] was 2 ng/mL. For the same binder, the IC50, pseudovirus neutralization [7] was 1 ng/mL, the IC80, pseudovirus neutralization (M1) (Env of SIVmac251.30.SG3) was greater than 50000 ng/mL and the IC80, pseudovirus neutralization (M2) (Env of SIVmac251.30.SG3) was greater than 50000 ng/mL. It also gave an IC80, pseudovirus neutralization (M1) [8] greater than 50000 ng/mL and an IC80, pseudovirus neutralization (M2) [8] greater than 50000 ng/mL.

B2: ePGT121.18.17 (ePGT121.18.H17 VH and ePGT121.17.L1 VL) (antibody, V domains shown)
VH: QMQLQESGPGLVKPGETLSLTCSVSGASISSSYWSWLRETPGKGLEWIGYTHHSGDTNYAPSLKSRVTIGLDPSKNQVSLSLTSVTAADTAVYYCARTLHGRRIYGVVAFNEYYTYFYWPTWGKGTQVTVSS
VL: SDISVAPGETVRITCGGESIGSRAVQWYQHRPGQAPRLIIYNNQDRPPGIPERFSGSPDIDFGTTATLTISNVEAGDEATYYCHIWDSRRPTNWELGPGTTLTVL
With B2 the IC50, pseudovirus neutralization [1] was 4 ng/mL, the IC50, pseudovirus neutralization [2] was 3 ng/mL and the IC50, pseudovirus neutralization [3] was 8 ng/mL. It also gave an IC50, pseudovirus neutralization [4] greater than 50000 ng/mL, an IC50, pseudovirus neutralization [5] of 7 ng/mL and an IC50, pseudovirus neutralization [6] of 5 ng/mL. It also gave an IC50, pseudovirus neutralization [7] of 4 ng/mL, an IC80, pseudovirus neutralization (Env of SIVmac251.30.SG3) greater than 50000 ng/mL and an IC80, pseudovirus neutralization [8] greater than 50000 ng/mL.

B3: ePGT121.15.H2.L1 (antibody, V domains shown)
VH: QMQLQESGPGLVKPGETLSLTCSVSGASISSSYWSWLRETPGKGLEWIGYTHHSGDTNYAPSLKSRVHLGLHPSKNQVSLSLTSVTAADTAVYYCARTLHGRRIYGVVAFNEWFTYFYWEVWGKGTQVTVSS
VL: SDISVAPGETVRISCGGESIGSRAVQWYQHRAGQAPKLIIYNNQDRPPGIPERFSGSPDIDFGTTATLTITNVEAGDEATYYCHIWDSRRPTNWVFGGGTTLTVL
Binder B3 has a neutralization (Table 6 value) [9] of 0.00199, a neutralization (Table 6 value) [10] of 0.00175 and a neutralization (Table 6 value) [11] of 0.00172. The neutralization (Table 6 value) [12] was 0.000864, the neutralization (Table 6 value) [13] was 0.00196 and the neutralization (Table 6 value) [14] was 0.00466. For the same binder, the neutralization (Table 6 value) [15] was 0.0024, the neutralization (Table 6 value) [16] was 0.00271 and the neutralization (Table 6 value) [17] was 0.00351 and 0.00488. For the same binder, the neutralization (Table 6 value) [18] was 0.275, the neutralization (Table 6 value) [19] was 0.0109 and the neutralization (Table 6 value) [20] was 0.004. For the same binder, the neutralization (Table 6 value) [21] was 4.5e-05, the neutralization (Table 6 value) [22] was 0.652 and the neutralization (Table 6 value) [23] was 0.00196. The neutralization (Table 6 value) [24] was 0.0259, the neutralization (Table 6 value) [25] was 0.00577 and the neutralization (Table 6 value) [26] was 0.00112. The neutralization (Table 6 value) [27] was 0.0207, the neutralization (Table 6 value) [28] was 9e-06 and the neutralization (Table 6 value) [29] was 0.0469. For the same binder, the neutralization (Table 6 value) [30] was 0.000582, the neutralization (Table 6 value) [31] was 0.000443 and the neutralization (Table 6 value) [32] was 0.000836. It also gave a neutralization (Table 6 value) [33] of 0.00326, a neutralization (Table 6 value) [34] of 0.698 and a neutralization (Table 6 value) [35] of 0.00136. The neutralization (Table 6 value) [36] was 0.698, the neutralization (Table 6 value) [37] was 0.0222 and the neutralization (Table 6 value) [38] was 0.000449. For the same binder, the neutralization (Table 6 value) [39] was 0.00106, the neutralization (Table 6 value) [40] was 0.0116 and the neutralization (Table 6 value) [41] was 0.00156. The neutralization (Table 6 value) [42] was 0.00508, the neutralization (Table 6 value) [43] was 0.00084 and the neutralization (Table 6 value) [44] was 0.0252. For the same binder, the neutralization (Table 6 value) [45] was 0.00375 and 0.00245, the neutralization (Table 6 value) [46] was 0.00115 and the neutralization (Table 6 value) [47] was 0.00168. The neutralization (Table 6 value) [48] was 0.00428 and 0.00241, the neutralization (Table 6 value) [49] was 0.000985 and the neutralization (Table 6 value) [50] was 0.122. It also gave a neutralization (Table 6 value) [51] of 0.00177.

B4: ePGT121.15 (ePGT121.15.H6 VH and ePGT121.15.L1 VL) (antibody, V domains shown)
VH: QMQLQESGPGLVKPGETLSLTCSVSGASISSSYWSWLRETPGKGLEWIGYTHHSGDTNYAPSLKSRVHLGLHPSKNQVSLSLTSVTAADTAVYYCARTLHGRRIYGVVAFNEFFTYFYWEVWGKGTQVTVSS
VL: SDISVAPGETVRISCGGESIGSRAVQWYQHRAGQAPKLIIYNNQDRPPGIPERFSGSPDIDFGTTATLTITNVEAGDEATYYCHIWDSRRPTNWVFGGGTTLTVL
For B4, the IC50, pseudovirus neutralization [1] was 2 ng/mL, the IC50, pseudovirus neutralization [2] was 3 ng/mL and the IC50, pseudovirus neutralization [3] was 9 ng/mL. The IC50, pseudovirus neutralization [4] was greater than 50000 ng/mL, the IC50, pseudovirus neutralization [5] was 3 ng/mL and the IC50, pseudovirus neutralization [6] was 3 ng/mL. For the same binder, the IC50, pseudovirus neutralization [7] was 2 ng/mL, the IC80, pseudovirus neutralization (Env of SIVmac251.30.SG3) was greater than 50000 ng/mL and the IC80, pseudovirus neutralization [8] was greater than 50000 ng/mL.
